US20130078216A1 (published 2013)

Columns and labels:
(His)6-Mouse ASGPR H1 [1] = target: T1, (His)6-Mouse ASGPR H1 (mouse, UniProt P34927 61-284); assay: BIAcore, biotinylated antigen on a streptavidin chip, FLAG-tagged dAb, 40 µl/min
T1 construct: Expressed in HEK293E, Ni-NTA purified; coated on a CM5 chip or biotinylated and captured on a streptavidin chip; The entry includes the His tag; also called mouse (His)6-ASGPR H1; mouse (His)6-ASGPR H1 extracellular domain
T1 sequence: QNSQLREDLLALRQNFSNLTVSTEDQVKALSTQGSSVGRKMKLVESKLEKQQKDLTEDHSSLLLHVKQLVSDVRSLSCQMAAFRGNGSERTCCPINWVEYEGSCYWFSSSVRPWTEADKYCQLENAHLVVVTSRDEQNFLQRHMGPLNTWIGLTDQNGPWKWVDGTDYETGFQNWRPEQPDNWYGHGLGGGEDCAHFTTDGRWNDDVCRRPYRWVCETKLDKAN
Description: (§1) To assay for potential dAb binding activity human (His)₆-ASGPR H1 stalk domain, human (His)₆-ASGPR H1 lectin domain and mouse (His)₆-ASGPR H1 extracellular domain were biotinylated and immobilised on a biacore Streptavidin chip surface.

[2] = target: T2, (His)6-Human ASGPR H1 Lectin Domain (human, UniProt P07306 154-291); assay: as above
T2 construct: Biotinylated and immobilised on a streptavidin chip; also called human (His)6-ASGPR H1 lectin domain; human (His)6 lectin domain
T2 sequence: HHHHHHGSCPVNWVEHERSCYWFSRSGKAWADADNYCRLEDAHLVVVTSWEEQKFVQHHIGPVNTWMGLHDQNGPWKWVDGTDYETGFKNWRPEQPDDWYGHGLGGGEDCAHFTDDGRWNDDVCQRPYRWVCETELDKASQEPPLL
Description: as §1

[3] = target: T3, (His)6-Human ASGPR H1 Stalk Domain (human, UniProt P07306 62-153); assay: BIAcore, biotinylated stalk domain on a streptavidin chip, flow 40 µl/min
T3 construct: Biotinylated and immobilised on a streptavidin chip; also called human (His)6-ASGPR H1 stalk domain; (His)6-human ASGPR H1 stalk domain residues glutamine 62-cysteine 153
T3 sequence: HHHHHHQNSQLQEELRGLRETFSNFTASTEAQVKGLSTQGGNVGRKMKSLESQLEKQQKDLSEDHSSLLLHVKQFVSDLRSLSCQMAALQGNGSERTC
Description: as §1

(His)6-Mouse ASGPR H1 [4] = target: T1, (His)6-Mouse ASGPR H1; assay: BIAcore epitope mapping, 1 µM dAb over (His)6 mouse ASGPR H1 on a CM5 chip
Description: After coating a BlAcore CM5 chip with (His)₆ mouse ASGPR H1, protein A or protein L purified dAb proteins were injected one after the other and in combination over the same antigen surface. The resulting binding RUs were determined in order to see whether the maximal binding capacity of the chip by one dAb molecule can be exceeded by simultaneously injecting a second dAb onto the same antigen surface. If so, the second dAb clearly binds a different epitope compared to the first one. 1 μM concentrations of each dAb were injected at a flow rate of […], both in single injection and co-injection experiments. If injection of the second dAb in the presence of the first dAb reduced the observed binding to the chip surface by greater than 20% (in comparison to observed binding of the second dAb to the chip surface in the absence of the first dAb) both dAbs were assumed to bind overlapping epitopes within the antigen (FIG. 6). Based on results obtained in these experiments murine ASGPR specific dAb clones could be grouped according to epitopes bound within the antigen as shown in FIG. 12.

[5] = target: T4, mouse ASGPR on the murine liver cell line Hepa1c1c7 (and on mouse liver in vivo) (mouse, UniProt P34927 1-284); assay: cell-based or functional assay
T4 sequence (looked up): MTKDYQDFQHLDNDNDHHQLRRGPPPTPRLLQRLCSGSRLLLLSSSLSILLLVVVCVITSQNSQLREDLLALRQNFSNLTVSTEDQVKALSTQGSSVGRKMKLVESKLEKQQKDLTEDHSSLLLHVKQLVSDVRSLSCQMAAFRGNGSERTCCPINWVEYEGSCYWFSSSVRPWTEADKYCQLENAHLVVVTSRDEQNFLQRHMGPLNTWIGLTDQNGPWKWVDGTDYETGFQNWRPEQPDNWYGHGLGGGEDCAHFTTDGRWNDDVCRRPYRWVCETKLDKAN

(His)6-Mouse ASGPR H1 [6] = target: T1, (His)6-Mouse ASGPR H1; assay: BIAcore, antigen coated on a CM5 chip, dAb at 2.5 µM
Description: (§2) FIG. 3: Vκ and VH dAbs selected against recombinant human and mouse ASGPR proteins binding specifically to the target antigen. Antigens were coated on the surface of a CM5 BlAcore chip and protein L purified Vκ dAb DOM26m-20 (top panel) or protein A purified VH dAb DOM26h-61 (bottom panel) was passed over the chip surface at a concentration of 2.5 μM using a flow-rate of […]. In the top panel binding of dAb to (His)₆-mouse ASGPR H1 ( )or human c-kit (His)₆ negative control antigen ( ) is shown. In the bottom panel dAb binding to (His)₆-human ASGPR H1 ( )or human c-kit (His)₆ negative control antigen ( ) is shown.
(§3) Screening by BlAcore took place using dAb supernatant expressed as above diluted 1:2 with HBS-P BlAcore running buffer. Each dAb was then injected over a blank flow cell and a flow cell coated with human or mouse (His)₆-ASGPR H1 on a CM5 chip. […] All unique dAb clones were expressed in 50 ml cultures (OnEX plus carbenicillin) overnight at 37° C. and purified on protein A (VH dAbs) or protein L (Vκ dAbs). Purified dAbs were passed over a CM5 BIAcore chip coated with either human or mouse (His)₆-ASGPR H1 at 20μg/ml (FIG. 3). Those dAbs that bound specifically to (His)₆-ASGPR H1 were then analysed in the flow cytometry cell binding assay (FIG. 4).

[7] = target: T5, human c-kit (His)6 negative control antigen (human, UniProt P10721 26-524, limits assumed); assay: BIAcore, antigens coated on a CM5 chip, human c-kit (His)6 as negative control antigen
T5 construct: Control antigen
Description: as §2, §3

[8] = target: T2, (His)6-Human ASGPR H1 Lectin Domain; assay: BIAcore, biotinylated antigen on a streptavidin chip, 60 nM dAb, 40 µl/min
(His)6-Human ASGPR H1 [9] = target: T6, (His)6-Human ASGPR H1 (human, UniProt P07306 62-291); assay: BIAcore, biotinylated (His)6-ASGPR H1 on a streptavidin chip, 62 nM dAb, 40 µl/min
T6 construct: Expressed in HEK293E, Ni-NTA purified; coated on a CM5 chip or biotinylated and captured on a streptavidin chip; The entry includes the His tag; also called human (His)6-ASGPR H1; Human (His)6 ASGPR H1 Q62-L291
T6 sequence: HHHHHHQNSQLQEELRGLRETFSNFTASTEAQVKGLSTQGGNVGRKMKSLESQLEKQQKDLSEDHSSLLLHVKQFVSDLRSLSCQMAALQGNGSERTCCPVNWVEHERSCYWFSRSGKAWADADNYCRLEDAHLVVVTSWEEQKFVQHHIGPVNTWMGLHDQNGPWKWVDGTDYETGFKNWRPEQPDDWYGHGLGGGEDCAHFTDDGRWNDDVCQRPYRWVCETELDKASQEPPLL
Description: ( )to human (His)₆-ASGPR H1. Biotinylated (His)₆-ASGPR H1 was immobilised on a Biacore streptavidin chip surface and 62 nM dAb passed over at a flow rate of 40 μl.min⁻¹.

(His)6-Human ASGPR H1 [10] = target: T6, (His)6-Human ASGPR H1; assay: BIAcore, antigen coated on a CM5 chip, dAb at 2.5 µM
Description: as §2, §3

T5 sequence (P10721 26-524 limits assumed): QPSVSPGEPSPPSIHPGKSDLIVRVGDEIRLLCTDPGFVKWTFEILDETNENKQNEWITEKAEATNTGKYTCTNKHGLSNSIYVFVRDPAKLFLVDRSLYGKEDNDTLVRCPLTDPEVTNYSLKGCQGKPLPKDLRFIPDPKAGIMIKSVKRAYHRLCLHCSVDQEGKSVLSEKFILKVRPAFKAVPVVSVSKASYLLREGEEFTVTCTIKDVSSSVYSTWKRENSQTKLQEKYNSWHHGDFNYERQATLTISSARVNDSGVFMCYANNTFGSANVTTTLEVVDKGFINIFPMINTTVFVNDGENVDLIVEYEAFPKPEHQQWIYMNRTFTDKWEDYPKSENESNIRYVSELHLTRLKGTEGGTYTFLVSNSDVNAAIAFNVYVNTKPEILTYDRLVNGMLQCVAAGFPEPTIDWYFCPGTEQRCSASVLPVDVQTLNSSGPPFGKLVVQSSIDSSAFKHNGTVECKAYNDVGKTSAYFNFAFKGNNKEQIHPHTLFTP

B1: DOM26h-210-2 (other, not shown: small tags and cut ends)
VH: ELQLLEFGGGLVQPGGSLRLSCTTSGFTFSRYTMGWVRQAPGKGLEWVSAIGPPGSNTYYADSVKGRFTISRDNSKNTLYLQMNSLRAEDTAVYYCAKWVMLRGRFDYWGQGTLVTVSS
B1: binds ((His)6-Mouse ASGPR H1 [1]); binds [2]; no binding [3].

B2: DOM26m-58 (other, not shown: small tags and cut ends)
VL: DIQMTQSPSSLSASVGDRVTITCRASQPIRNALTWYQQKPGKAPKLLIYRTSHLQSGVPSRFSGSGSGTDFTLTISSLQPEDFATYYCQQTWTMPLTFGQGTKVEIKR
notes: human Vκ domain antibody (dAb) selected on mouse ASGPR H1
B2: binds ((His)6-Mouse ASGPR H1 [4]).

B3: DOM26h-161-84 (other, not shown: small tags and cut ends)
VL: DIQMTQSPSSLSASVGDRVTITCRASQAIGRWLLWYQQKPGKAPKLLIGPGSRLRSGVPSRFSGSGSGTDFTLTISSLQPEDFVTYYCQQAYAWPPTFGQGTKVEIKR
In the case of B3, the “counts in the liver (percentage of injected dose) 3 hours after injection of DOTA-NHS conjugated, 111In labelled dAb in balb/c mice, against Vκ dummy” value [5] is reported as 46 fold, the binding result [2] is reported as “binds” and the binding result [3] is reported as “no binding”.

B4: DOM26m-54 (other, not shown: small tags and cut ends)
VL: DIQMTQSPSSLSASVGDRVTITCRASLNIDTDLVWYQQKPGKAPKLLIAGWSGLQSGVPSRFSGSGSGTDFTLTISSLQPEDFATYYCGQFAREPFTFGQGTKVEIKR
notes: as for B2
B4: binds ((His)6-Mouse ASGPR H1 [4]).

B5: DOM26m-33 carrying the point mutation S116C, DOTA-Maleimide conjugated and 111In labelled (other)
VH: EVQLLESGGGLVQPGGSLRLSCAASGFTFAKYDMIWVRQAPGKGLEWVSGINHSGSRTYYADSVKGRFTISRDNSKNMLYLQMNSLRAEDTAVYYCAKSGSSFDYWGQGTLVTVSC
modifications: DOTA-Maleimide on the C-terminal cysteine (S116C), labelled with 111In
For B5, the “counts in the liver (percent injected dose) 3 hours after intravenous injection of 111In labelled dAb in balb/c mice, against VH dummy 2” value [5] was 4.9 fold and the “counts in the liver (percent injected dose) 3 hours after intravenous injection of 111In labelled dAb in balb/c mice, against Vκ dummy” value [5] was 12.4 fold.

B6: DOM26m-20 (other, not shown: small tags and cut ends)
VL: DIQMTQSPSSLSASVGDRVTITCRASKYIGSDLYWYQQKPGKAPKLLIGGGSRLQSGVSSRFSGSGSGTDFTLTISSLQPEDFATYYCGQKWARPLTFGQGTKVEIKR
notes: human Vκ domain antibody (dAb) selected on mouse ASGPR H1; also called Vκ dAb DOM26m-20
B6: binds ((His)6-Mouse ASGPR H1 [6]); no binding (tested: 2.5 µM) [7].

B7: DOM26h-220-1 (other, not shown: small tags and cut ends)
VH: EVQLLESGGGLVQPGGSLRLSCAASGFTFEDYGMGWVRQAPGKGLEWVSAIGRNGSQTYYADSVKGRFTISRDNSKNTLYLQMNSLRAEDTAVYYCAKLRRGRGLNTFTLDYWGQGTLVTVSS
B7: binds ((His)6-Mouse ASGPR H1 [1]); binds [2]; no binding [3].

B8: DOM26m-50 (other, not shown: small tags and cut ends)
VL: DIQMTQSPSSLSASVGDRVTITCRASISIYEHLNWYQQKPGKAPTLLIWDSSGLQSGVPSRFSGSGSGTDFTLTISSLQPEDFATYYCVQHHSHPPTFGQGTKVEIKR
notes: as for B2
B8: binds ((His)6-Mouse ASGPR H1 [4]).

B9: DOM26h-196-61 (other, not shown: small tags and cut ends)
VH: EVQLLESGGGLVQPGGSLRLSCAASGFTFEKYAMAWVRQAPGKGLEWVSRISARGVTTYYADSVKGRFTISRDNSKNTLYLQMNSLRAEDTAVYYCAKHKRHEHTRFDSWGQGTLVTVSS
In the case of B9, the “counts in the liver (percentage of injected dose) 3 hours after injection of DOTA-NHS conjugated, 111In labelled dAb in balb/c mice, against VH dummy 2” value [5] is reported as roughly 35 fold, the binding result [8] is reported as “binds” and the binding result ((His)6-Human ASGPR H1 [9]) is reported as “binds”. B9: no binding (tested: 60 nM) [3].

B10: DOM26h-196 (other, not shown: small tags and cut ends)
VH: EVQLLESGGGLVQPGGSLRLSCAASGFTFEKYAMAWVRQAPGKGLEWVSRISMAGMTTYYADSVKGRFTISRDNSKNTLYLQMNSLRAEDTAVYYCAKHKKSAHTRFDSWGQGTLVTVSS
notes: human VH domain antibody (dAb)
B10: binds ((His)6-Human ASGPR H1 [9]).

B11: DOM26h-61 (other, not shown: small tags and cut ends)
VH: EVQLLESGGGLVQPGGSLRLSCAASGFTFSTYPMHWARQAPGKGLEWVSSISPSGDSTYYADSVKGRFTISRDNSKNTLYLQMNSLRAEDTAVYYCAKNALRFDYWGQGTLVTVSS
notes: human VH domain antibody (dAb); also called VH dAb DOM26h-61
B11: binds ((His)6-Human ASGPR H1 [10]); no binding (tested: 2.5 µM) [7].

B12: DOM26m-7 (other, not shown: small tags and cut ends)
VH: EVQLLESGGGLVQPGGSLRLSCAASGFTFDDYEMGWVRQAPGKGLEWVSLISAQGRVTYYADSVKGRFTISRDNSKNTLYLQMNSLRAEDTAVYYCAKNSPSYLLNFDYWGQGTLVTVSS
notes: human VH domain antibody (dAb) selected on mouse ASGPR H1
B12: binds ((His)6-Mouse ASGPR H1 [4]).

B13: DOM26m-29 (other, not shown: small tags and cut ends)
VH: EVQLLESGGGLVQPGGSLRLSCAASGFTFEDSGMIWARQAPGKGLEWVSGIASEGSTTYYADSVKGRFTISRDNSKNTLYLQMNSLRAEDTAVYYCAKSGLSFDYWGQGTLVTVSS
notes: as for B12
B13: binds ((His)6-Mouse ASGPR H1 [4]).
